Changes are numbered by the printed parent chain.
Tests used:
Conditions in all cases: remark: other sources report otherwise
[1] = molecular target: SARS-CoV-2 RBD (P.1) domain (SARS-CoV-2); assay: RBD-ACE2 competition ELISA; parameters: unit not given beside the values
[2] = molecular target: SARS-CoV-2 RBD (B.1.1.7) domain (SARS-CoV-2); assay: RBD-ACE2 competition ELISA; parameters: unit not given beside the values
[3] = molecular target: SARS-CoV-2 RBD (B.1.351) domain (SARS-CoV-2); assay: RBD-ACE2 competition ELISA; parameters: unit not given beside the values
[4] = molecular target: T1, SARS-CoV-2 Spike ectodomain (tri-S), Wuhan (SARS-CoV-2), P0DTC2; assay: competition ELISA vs bio-Cv2.3235
[5] = molecular target: T1, SARS-CoV-2 Spike ectodomain (tri-S), …; assay: competition ELISA vs bio-Cv2.1353
[6] = molecular target: T1, SARS-CoV-2 Spike ectodomain (tri-S), …; assay: competition ELISA vs bio-Cv2.5213
[7] = molecular target: T1, SARS-CoV-2 Spike ectodomain (tri-S), …; assay: ELISA, coated antigen
[8] = molecular target: SARS-CoV-2 RBD (P.1) domain (SARS-CoV-2); assay: RBD-ACE2 competition ELISA; parameters: unit not given beside the values; remark: listed apart in the source
[9] = molecular target: SARS-CoV-2 RBD (B.1.1.7) domain (SARS-CoV-2); assay: RBD-ACE2 competition ELISA; parameters: unit not given beside the values; remark: listed apart in the source
[10] = molecular target: SARS-CoV-2 RBD (B.1.351) domain (SARS-CoV-2); assay: RBD-ACE2 competition ELISA; parameters: unit not given beside the values; remark: listed apart in the source
[11] = molecular target: T1, SARS-CoV-2 Spike ectodomain (tri-S), …; assay: SPR (Biacore), antibody immobilised
[12] = molecular target: T1, SARS-CoV-2 Spike ectodomain (tri-S), …; assay: competition ELISA, spike protein binding to ACE2 ectodomain
[13] = molecular target: T1, SARS-CoV-2 Spike ectodomain (tri-S), …; assay: tri-S/ACE2 blocking ELISA [B]
[14] = molecular target: T1, SARS-CoV-2 Spike ectodomain (tri-S), …; assay: biotinylated tri-S on immobilised ACE2, competition ELISA
[15] = molecular target: SARS-CoV-2 RBD (P.1) domain (SARS-CoV-2); assay: ELISA; parameters: unit not given beside the values
[16] = molecular target: SARS-CoV-2 RBD (B.1.1.7) domain (SARS-CoV-2); assay: ELISA; parameters: unit not given beside the values
[17] = molecular target: SARS-CoV-2 RBD (B.1.351) domain (SARS-CoV-2); assay: ELISA; parameters: unit not given beside the values
[18] = molecular target: T1, SARS-CoV-2 Spike ectodomain (tri-S), …; assay: tri-S capture ELISA
[19] = molecular target: T1, SARS-CoV-2 Spike ectodomain (tri-S), …; assay: competition ELISA vs bio-Cv2.1169
[20] = molecular target: T1, SARS-CoV-2 Spike ectodomain (tri-S), …; assay: competition ELISA vs bio-Cv2.3194
[21] = molecular target: SARS-CoV-2 RBD (P.1) domain (SARS-CoV-2); assay: RBD/ACE2 blocking ELISA
[22] = molecular target: SARS-CoV-2 RBD (B.1.1.7) domain (SARS-CoV-2); assay: RBD/ACE2 blocking ELISA
[23] = molecular target: SARS-CoV-2 RBD (B.1.351) domain (SARS-CoV-2); assay: RBD/ACE2 blocking ELISA
[24] = molecular target: SARS-CoV-2 RBD (P.1) domain (SARS-CoV-2); assay: ELISA; parameters: unit not given beside the values; remark: listed apart in the source
[25] = molecular target: SARS-CoV-2 RBD (B.1.1.7) domain (SARS-CoV-2); assay: ELISA; parameters: unit not given beside the values; remark: listed apart in the source
[26] = molecular target: SARS-CoV-2 RBD (B.1.351) domain (SARS-CoV-2); assay: ELISA; parameters: unit not given beside the values; remark: listed apart in the source
[27] = molecular target: T1, SARS-CoV-2 Spike ectodomain (tri-S), …; assay: tri-S/ACE2 blocking ELISA
[28] = molecular target: T1, SARS-CoV-2 Spike ectodomain (tri-S), …; assay: ELISA; parameters: unit not given beside the values
[29] = molecular target: SARS-CoV-2 RBD (P.1) domain (SARS-CoV-2); assay: ELISA

B1: Cv2.1353 (recombinant human IgG1) (antibody)
heavy: EVQLVESGGGLVQPGGSLRLSCAASGVTVSSNYMNWVRQAPGKGLEWVSVIYSGGSTFYADSVKGRFIISRDNSKNTLYLQMNSLKTEDTAVYYCARDLGPMGFDIWGQGTMVTVSSASTKGPSVFPLAPSSKSTSGGTAALGCLVKDYFPEPVTVSWNSGALTSGVHTFPAVLQSSGLYSLSSVVTVPSSSLGTQTYICNVNHKPSNTKVDKKVEPKSCDKTHTCPPCPAPELLGGPSVFLFPPKPKDTLMISRTPEVTCVVVDVSHEDPEVKFNWYVDGVEVHNAKTKPREEQYNSTYRVVSVLTVLHQDWLNGKEYKCKVSNKALPAPIEKTISKAKQPREPQVYTLPPSRDELTKNQVSLTCLVKGFYPSDIAVEWESNGQPENNYKTTPPVLDSDGSFFLYSKLTVDKSRWQQGNVFSCSVMHEALHNHYTQKSLSLSPGK
light: DIQMTQSPSFLSASVGDRVTITCRASQGISSYLAWYQQKPGKAPKLLIYAASTLQSGVPSRFSGSGSGTEFTLTISSLQPEDFATYYCQQLNSDPPVTFGPGTKVDIKRTVAAPSVFIFPPSDEQLKSGTASVVCLLNNFYPREAKVQWKVDNALQSGNSQESVTEQDSKDSTYSLSSTLTLSKADYEKHKVYACEVTHQGLSSPVTKSFNRGEC
B1 showed an AUC (RBD block.) [1] of 66, an AUC (RBD block.) [2] of 203 and an AUC (RBD block.) [3] of 62. The % inhibition (competition) [4] was 97, the % inhibition (competition) [5] was 88 and the % inhibition (competition) [6] was 90. For the same binder, the ELISA OD [7] was 3.5 OD, the triS ELISA (AUC) [7] was 14 AUC and the AUC (RBD block.) [8] was 33. For the same binder, the AUC (RBD block.) [9] was 102, the AUC (RBD block.) [10] was 31 and the Kd [11] was 2.22 nM. It also gave an ACE2 Block (%) [12] of 92%, an AUC of blocking [13] of 156 and an EC50 [14] of 0.26 µg/mL. The AUC (RBD bind.) [15] was 13, the AUC (RBD bind.) [16] was 12 and the AUC [17] was 13. It also gave an AUC (RBD bind.) [17] of 12, a triS Capt-ELISA [18] of 2.2 and a % inhibition (competition) [19] of 86. For the same binder, the % inhibition (competition) [20] was 88.

B2: COV2-2130 (antibody, V domains shown)
VH: EVQLVESGGGLVKPGGSLRLSCAASGFTFRDVWMSWVRQAPGKGLEWVGRIKSKIDGGTTDYAAPVKGRFTISRDDSKNTLYLQMNSLKTEDTAVYYCTTAGSYYYDTVGPGLPEGKFDYWGQGTLVTVSS
VL: not shown
B2 gave a % binding inhibition [21] of 90%, a % binding inhibition [22] of 85% and a % binding inhibition [23] of 96%. The AUC [24] was 3, the AUC [25] was 3 and the AUC [26] was 3.

B3: ADG-2 (antibody, V domains shown)
VH: EVQLVESGGGLVKPGGSLRLSCAASGFTFSSYYMNWVRQAPGKGLEWVSSISEDGYSTYYPDSLKGRFTISRDSAKNSLYLQMNSLRADDTAVYYCARDFSGHTAWAGTGFEYWGQGTLVTVSS
VL: QSVLTQPPSVSGAPGQRITISCTGSSSNIGAGYDVHWYQQLPGTAPKLLIYGSSSRNSGVPDRFSGSKSGTSASLAITGLQAEDEADYYCQSYDSSLSVLYTFGTGTKVTVL
B3 gave a % binding inhibition [21] of 89%, a % binding inhibition [22] of 92% and a % binding inhibition [23] of 95%. For the same binder, the % binding inhibition [27] was 96%, the AUC [24] was 3 and the AUC [25] was 3. The AUC [26] was 3 and the AUC [28] was 3.

B4: Cv2.5213 (recombinant human IgG1) (antibody)
heavy: EVQLVESGGGLIQPGGSLRLSCAASGFTVSSNYMSWVRQAPGKGLEWVSLIYSGGSTYYADSVKGRFTISRDNSKNTLYLQMNSLRAEDTAVYYCARDLNYYGMDVWGQGATVTVSSASTKGPSVFPLAPSSKSTSGGTAALGCLVKDYFPEPVTVSWNSGALTSGVHTFPAVLQSSGLYSLSSVVTVPSSSLGTQTYICNVNHKPSNTKVDKKVEPKSCDKTHTCPPCPAPELLGGPSVFLFPPKPKDTLMISRTPEVTCVVVDVSHEDPEVKFNWYVDGVEVHNAKTKPREEQYNSTYRVVSVLTVLHQDWLNGKEYKCKVSNKALPAPIEKTISKAKQPREPQVYTLPPSRDELTKNQVSLTCLVKGFYPSDIAVEWESNGQPENNYKTTPPVLDSDGSFFLYSKLTVDKSRWQQGNVFSCSVMHEALHNHYTQKSLSLSPGK
light: not shown
Binder B4 has an AUC (RBD block.) [1] of 9, an AUC (RBD block.) [2] of 45 and an AUC (RBD block.) [3] of 18. It also gave an EC50 (read off the curve) [29] of 0.07 µg/mL, a % inhibition (competition) [4] of 98 and a % inhibition (competition) [5] of 84. It also gave a % inhibition (competition) [6] of 90, an ELISA OD [7] of 3.8 OD and a triS ELISA (AUC) [7] of 14.2 AUC. The AUC (RBD block.) [8] was 4, the AUC (RBD block.) [9] was 22 and the AUC (RBD block.) [10] was 9. For the same binder, the Kd [11] was 6.54 nM, the ACE2 Block (%) [12] was 90% and the AUC of blocking [13] was 181. It also gave an EC50 [14] of 0.22 µg/mL, an AUC (RBD bind.) [15] of 9 and an AUC (RBD bind.) [16] of 13. It also gave an AUC [17] of 1, an AUC (RBD bind.) [17] of 2 and a triS Capt-ELISA [18] of 2.1. For the same binder, the % inhibition (competition) [19] was 81 and the % inhibition (competition) [20] was 81.

B5: Cv2.3235 (recombinant human IgG1) (antibody)
heavy: B4 heavy with S31R, L50V, Y58F, L99G, N100D, A111T
light: DIQMTQSPSFLSASVGDRVTITCRASQGISSFLAWYQQKPGKAPKLLIYGASTLQSGVTSRFSGSGSGTEFTLTISSLQPEDFATYYCQRLDSYPPITFGQGTRLEIKRTVAAPSVFIFPPSDEQLKSGTASVVCLLNNFYPREAKVQWKVDNALQSGNSQESVTEQDSKDSTYSLSSTLTLSKADYEKHKVYACEVTHQGLSSPVTKSFNRGEC
B5 showed an AUC (RBD block.) [1] of 4, an AUC (RBD block.) [2] of 30 and an AUC (RBD block.) [3] of 25. It also gave a % inhibition (competition) [4] of 93, a % inhibition (competition) [5] of 56 and a % inhibition (competition) [6] of 67. The ELISA OD [7] was 3.6 OD, the triS ELISA (AUC) [7] was 13.2 AUC and the AUC (RBD block.) [8] was 2. The AUC (RBD block.) [9] was 15, the AUC (RBD block.) [10] was 13 and the Kd [11] was 5.37 nM. It also gave an ACE2 Block (%) [12] of 78%, an AUC of blocking [13] of 164 and an EC50 [14] of 0.47 µg/mL. It also gave an AUC (RBD bind.) [15] of 2, an AUC (RBD bind.) [16] of 13 and an AUC [17] of 1. For the same binder, the AUC (RBD bind.) [17] was 1, the triS Capt-ELISA [18] was 1 and the % inhibition (competition) [19] was 34. It also gave a % inhibition (competition) [20] of 60.

Source: patent publication US20240336672A1
